Among the data in publication PMC3534050, “Simultaneous Single-Sample Determination of NMNAT Isozyme Activities in Mouse Tissues” (PLoS ONE, 2012) are Km, kcat and kcat/Km values, retold here.

Substrate in series [1]: Nc1ncnc2c1ncn2[C@@H]1O[C@H](COP(=O)(O)OP(=O)(O)OP(=O)(O)O)[C@@H](O)[C@H]1O
The series is described as follows: C18-HPLC of NAD formed, nonlinear fit. Type of series: biochemical, Mus musculus. As to conditions: co-substrate NMN, ATP 25–175 µM, HEPES/KOH pH 7.5, MgCl2, 37°C. The source says: (§1) C18-HPLC of NAD formed, nonlinear fit on mNMNAT1

Substrate in series [2]: NC(=O)c1ccc[n+]([C@@H]2O[C@H](COP(=O)(O)O)[C@@H](O)[C@H]2O)c1
In words: C18-HPLC of NAD formed, nonlinear fit. The series is classed as biochemical, Mus musculus. Conditions: co-substrate ATP, NMN 5–100 µM, HEPES/KOH pH 7.5, MgCl2, 37°C.
Excerpt: as §1

Substrate in the series “purified protein”: Nc1ncnc2c1ncn2[C@@H]1O[C@H](COP(=O)(O)OP(=O)(O)OP(=O)(O)O)[C@@H](O)[C@H]1O
In words: purified protein. As to conditions: co-substrate NMN, ATP 25–175 µM, HEPES/KOH pH 7.5, MgCl2, 37°C.

Substrate in series [3]: NC(=O)c1ccc[n+]([C@@H]2O[C@H](COP(=O)(O)O)[C@@H](O)[C@H]2O)c1
The series is described as follows: C18-HPLC of NAD formed, nonlinear fit. The series is classed as biochemical, Mus musculus. Conditions: co-substrate ATP, NMN 5–100 µM, HEPES/KOH pH 7.5, MgCl2, 37°C. This is another data set of the same source.

Substrate in series [4]: Nc1ncnc2c1ncn2[C@@H]1O[C@H](COP(=O)(O)OP(=O)(O)OP(=O)(O)O)[C@@H](O)[C@H]1O
In words: C18-HPLC of NAD formed, nonlinear fit. Type of series: biochemical, Mus musculus. Conditions: co-substrate NMN, ATP 25–175 µM, HEPES/KOH pH 7.5, MgCl2, 37°C. The source says:
(§2) C18-HPLC of NAD formed, nonlinear fit on mNMNAT3
This is another data set of the same source.

Substrate in series [5]: NC(=O)c1ccc[n+]([C@@H]2O[C@H](COP(=O)(O)O)[C@@H](O)[C@H]2O)c1
In words: C18-HPLC of NAD formed, nonlinear fit. The series is classed as biochemical, Mus musculus. As to conditions: co-substrate ATP, NMN 5–100 µM, HEPES/KOH pH 7.5, MgCl2, 37°C.
Excerpt: as §2
This is another data set of the same source.

B1: mNMNAT1 (Mus musculus) (protein)
chain: MDSSKKTEVVLLACGSFNPITNMHLRLFELAKDYMHATGKYSVIKGIISPVGDAYKKKGLIPAHHRIIMAELATKNSHWVEVDTWESLQKEWVETVKVLRYHQEKLATGSCSYPQSSPALEKPGRKRKWADQKQDSSPQKPQEPKPTGVPKVKLLCGADLLESFSVPNLWKMEDITQIVANFGLICITRAGSDAQKFIYESDVLWRHQSNIHLVNEWITNDISSTKIRRALRRGQSIRYLVPDLVQEYIEKHELYNTESEGRNAGVTLAPLQRNAAEAKHNHSTL
notes: predicted mass 34518 Da
For B1, in series [1], the Km (commonly the substrate concentration at which the rate is half of its maximum) was found to be 33.5 ± 5.1 µM; the turnover number (kcat) – broadly, the number of substrate molecules converted per active site and unit of time at saturation – was 15 ± 0.7 s⁻¹; the specificity constant (kcat/Km) (as a rule, the turnover number divided by the Michaelis constant) turned out to be 450000 M⁻¹ s⁻¹. In series [2], the Km stood at 25.2 ± 5.6 µM, the kcat was 15.5 ± 1.3 s⁻¹ and the kcat/Km came out at 610000 M⁻¹ s⁻¹.

B2: mNMNAT2 (Mus musculus) (protein)
chain: MTETTKTHVILLACGSFNPITKGHIQMFERARDYLHKTGRFIVIGGIVSPVHDSYGKQGLVSSRHRLIMCQLAVQNSDWIRVDPWECYQDTWQTTCSVLEHHRDLMKRVTGCILSNVNTPSMTPVIGQPQHENTQPIYQNSNVPTKPTAAKILGKVGESLSRICCVRPPVERFTFVDENANLGTVMRYEEIELRILLLCGSDLLESFCIPGLWNEADMEVIVGDFGIVVVPRDAADTDRIMNHSSILRKYKNNIMVVKDDINHPMSVVSSTKSRLALQHGDGHVVDYLSQPVIDYILKSQLYINASG
notes: predicted mass 36668 Da
For B2, in the series “purified protein”, the Michaelis-Menten constant (Km) amounted to 82.0 ± 15.1 µM, the kcat came out at 2.33 s⁻¹ and the kcat/Km was 30000 M⁻¹ s⁻¹. In series [3], the Michaelis-Menten constant (Km) is 38.5 ± 13.5 µM, the kcat stood at 2.87 ± 0.5 s⁻¹ and the specificity constant (kcat/Km) was determined as 70000 M⁻¹ s⁻¹.

B3: mNMNAT3 (Mus musculus) (protein)
chain: MKNRIPVVLLACGSFNPITNMHLRLFEVARDHLHQTGRYQVIEGIISPVNDSYGKKDLVASHHRVAMARLALQTSDWIRVDPWESEQAQWMETVKVLRHHHRELLRSSAQMDGPDPSKTPSASAALPELKLLCGADVLKTFQTPNLWKDTHIQEIVEKFGLVCVSRSGHDPERYISDSPILQQFQHNIHLAREPVLNEISATYVRKALGQGQSVKYLLPEAVITYIRDQGLYINDGSWKGKGKTG
notes: predicted mass 29866 Da
For the protein B3, in series [4], the Michaelis constant (Km) amounted to 39.0 ± 5.9 µM, the kcat turned out to be 0.74 ± 0.04 s⁻¹ and the kcat/Km is 20000 M⁻¹ s⁻¹. Also, in series [5], the Km was found to be 117.6 ± 4.6 µM, the turnover number (kcat) was 0.75 ± 0.02 s⁻¹ and the specificity constant (kcat/Km) came out at 10000 M⁻¹ s⁻¹.
